Measurements taken from patent US20260266848A1, “COMPOSITIONS AND METHODS FOR DIAGNOSING AND TREATING DYSTONIA” (Duke University, priority 2023, published 2026).

B1: Col6a1 (protein, UniProt Q04857 20-1025, looked up)
Collagen alpha-1(VI) chain: QDIQGSKAIAFQDCPVDLFFVLDTSESVALRLKPYGALVDKVKSFTKRFIDNLRDRYYRCDRNLVWNAGALHYSDEVEIIRGLTRMPSGRDELKASVDAVKYFGKGTYTDCAIKKGLEELLIGGSHLKENKYLIVVTDGHPLEGYKEPCGGLEDAVNEAKHLGIKVFSVAITPDHLEPRLSIIATDHTYRRNFTAADWGHSRDAEEVISQTIDTIVDMIKNNVEQVCCSFECQAARGPPGPRGDPGYEGERGKPGLPGEKGEAGDPGRPGDLGPVGYQGMKGEKGSRGEKGSRGPKGYKGEKGKRGIDGVDGMKGETGYPGLPGCKGSPGFDGIQGPPGPKGDAGAFGMKGEKGEAGADGEAGRPGNSGSPGDEGDPGEPGPPGEKGEAGDEGNAGPDGAPGERGGPGERGPRGTPGVRGPRGDPGEAGPQGDQGREGPVGIPGDSGEAGPIGPKGYRGDEGPPGPEGLRGAPGPVGPPGDPGLMGERGEDGPPGNGTEGFPGFPGYPGNRGPPGLNGTKGYPGLKGDEGEVGDPGEDNNDISPRGVKGAKGYRGPEGPQGPPGHVGPPGPDECEILDIIMKMCSCCECTCGPIDILFVLDSSESIGLQNFEIAKDFIIKVIDRLSKDELVKFEPGQSHAGVVQYSHNQMQEHVDMRSPNVRNAQDFKEAVKKLQWMAGGTFTGEALQYTRDRLLPPTQNNRIALVITDGRSDTQRDTTPLSVLCGADIQVVSVGIKDVFGFVAGSDQLNVISCQGLSQGRPGISLVKENYAELLDDGFLKNITAQICIDKKCPDYTCPITFSSPADITILLDSSASVGSHNFETTKVFAKRLAERFLSAGRADPSQDVRVAVVQYSGQGQQQPGRAALQFLQNYTVLASSVDSMDFINDATDVNDALSYVTRFYREASSGATKKRVLLFSDGNSQGATAEAIEKAVQEAQRAGIEIFVVVVGPQVNEPHIRVLVTGKTAEYDVAFGERHLFRVPNYQALLRGVLYQTVSRKVALG
B2: Eif4b (protein, UniProt Q8BGD9 1-611, looked up)
Eukaryotic translation …: MAASAKKKNKKGKTISLTDFLAEDGGTGGGSTYVPKPVSWADETDDLEGDVSTTWHSNDDDVYRAPPIDRSILPTAPRAAREPNIDRSRLPKSPPYTAFLGNLPYDVTEDSIKDFFRGLNISAVRLPREPSNPDRLKGFGYAEFEDLDSLLSALSLNEESLGNRRIRVDVADQAQDKDRDDRSFGRDRNRDSDKTDTDWRARPTTDSFDDYPPRRGDDSFGDKYRDRYDSDRYRDGYRDGYRDGPRRDMDRYGGRDRYDDRGSRDYDRGYDSRIGSGRRAFGSGYRRDDDYRGGGDRYEDRYDRRDDRSWSSRDDYSRDDYRRDDRGPPQRPRLNLKPRSAPKEDDASASTSQSSRAASIFGGAKPVDTAAREREVEERLQKEQEKLQRQLDEPKLDRRPRERHPSWRSEETQERERSRTGSESSQTGASATSGRNTRRRESEKSLENETLNKEEDCHSPTSKPPKPDQPLKVMPAPPPKENAWVKRSSNPPARSQSSDTEQPSPTSGGGKVAAVQPPEEGPSRKDGNKVDVVGATQGQAGSCSRGPGDGGSRDHWKDLDRKDGKKDQDSRSAPEPKKPEENPASKFSSASKYAALSVDGEDEDEGDDCTE
B3: Eef1e1 (protein, UniProt Q9D1M4 2-174, looked up)
Eukaryotic translation …: AAAAELRLLEKSLGLKPGNKYSAQGERQIPVLQTNNGPSLMGLSTIATHLVKQASKEHLLGSTAEEKAMVQQWLEFRVTRVDGHSSKEDTQTLLKDLNSYLEDKVYLAGHNITLADILLYYGLHRFIVDLTVQEKEKYLNVSRWFCHIQHYPDIRQHLSSIVFIKNRLYANSH
B4: Ddx3x (protein, UniProt Q62167 2-662, looked up)
ATP-dependent RNA helicase …: SHVAVENALGLDQQFAGLDLNSSDNQSGGSTASKGRYIPPHLRNREATKGFYDKDSSGWSSSKDKDAYSSFGSRGDSRGKSSFFGDRGSGSRGRFDDRGRGDYDGIGGRGDRSGFGKFERGGNSRWCDKSDEDDWSKPLPPSERLEQELFSGGNTGINFEKYDDIPVEATGNNCPPHIESFSDVEMGEIIMGNIELTRYTRPTPVQKHAIPIIKEKRDLMACAQTGSGKTAAFLLPILSQIYADGPGEALRAMKENGRYGRRKQYPISLVLAPTRELAVQIYEEARKFSYRSRVRPCVVYGGAEIGQQIRDLERGCHLLVATPGRLVDMMERGKIGLDFCKYLVLDEADRMLDMGFEPQIRRIVEQDTMPPKGVRHTMMFSATFPKEIQMLARDFLDEYIFLAVGRVGSTSENITQKVVWVEEIDKRSFLLDLLNATGKDSLTLVFVETKKGADSLEDFLYHEGYACTSIHGDRSQRDREEALHQFRSGKSPILVATAVAARGLDISNVKHVINFDLPSDIEEYVHRIGRTGRVGNLGLATSFFNERNINITKDLLDLLVEAKQEVPSWLENMAFEHHYKGSSRGRSKSSRFSGGFGARDYRQSSGASSSSFSSSRASSSRSGGGGHGGSRGFGGGGYGGFYNSDGYGGNYNSQGVDWWGN
B5: Psmd4 (protein, UniProt O35226 1-376, looked up)
26S proteasome non-ATPase …: MVLESTMVCVDNSEYMRNGDFLPTRLQAQQDAVNIVCHSKTRSNPENNVGLITLANDCEVLTTLTPDTGRILSKLHTVQPKGKITFCTGIRVAHLALKHRQGKNHKMRIIAFVGSPVEDNEKDLVKLAKRLKKEKVNVDIINFGEEEVNTEKLTAFVNTLNGKDGTGSHLVTVPPGPSLADALISSPILAGEGGAMLGLGASDFEFGVDPSADPELALALRVSMEEQRQRQEEEARRAAAASAAEAGIATPGTEDSDDALLKMTINQQEFGRPGLPDLSSMTEEEQIAYAMQMSLQGTEFSQESADMDASSAMDTSDPVKEEDDYDVMQDPEFLQSVLENLPGVDPNNAAIRSVMGALASQATKDGKNDKKEEEKK
B6: Stxbp2 (protein, UniProt Q64324 1-593, looked up)
Syntaxin-binding protein 2: MAPLGLKAVVGEKILSGVIRSVKKDGEWKVLIMDHPSMRILSSCCKMSDILAEGITIVEDINKRREPIPSLEAIYLLSPTEKSVQALIADFQGTPTFTYKAAHIFFTDTCPEPLFSELGRSRLAKAVKTLKEIHLAFLPYEAQVFSLDAPHSTYNLYCPFRAGERGRQLDALAQQIATLCATLQEYPSIRYRKGPEDTAQLAHAVLAKLNAFKADTPSLGEGPEKTRSQLLIMDRAADPVSPLLHELTFQAMAYDLLDIEQDTYRYETTGLSESREKAVLLDEDDDLWVELRHMHIADVSKKVTELLKTFCESKRLTTDKANIKDLSHILKKMPQYQKELNKYSTHLHLADDCMKHFKGSVEKLCSVEQDLAMGSDAEGEKIKDAMKLIVPVLLDASVPPYDKIRVLLLYILLRNGVSEENLAKLIQHANVQSYSSLIRNLEQLGGTVTNSAGSGTSSRLERRERMEPTYQLSRWSPVIKDVMEDVVEDRLDRKLWPFVSDPAPVPSSQAAVSARFGHWHKNKAGVEARAGPRLIVYIVGGVAMSEMRAAYEVTRATEGKWEVLIGSSHILTPTRFLDDLKTLDQKLEGVALP

Assays:
DYT-TOR1A MEF EVs = experiment: Quantitative LC-MS/MS proteomics of EVs from drug-treated DYT-TOR1A MEF cultures (ritonavir, salubrinal); type: cell-based, mouse; parameters: key to RTV Corrective Direction / RTV Corrective Direction, Grwd1 / RTV Corrective Direction, Srrm2 / RTV Corrective Direction, Rbm17 / RTV Corrective Direction, Dcaf8 / RTV Corrective Direction, Edil3 / RTV Corrective Direction, Timp3 / RTV Corrective Direction, Heatr3 / RTV Corrective Direction, Brd4 / RTV Corrective Direction, P3h4 / RTV Corrective Direction, Pacsin3 / RTV Corrective Direction, Naa50 / RTV Corrective Direction, Lpar6 / RTV Corrective Direction, Ndrg1 / RTV Corrective Direction, Kntc1 / RTV Corrective Direction, Cdk11b / RTV Corrective Direction, Sumo1 / RTV Corrective Direction, Lsm4 / RTV Corrective Direction, Hmga2 / RTV Corrective Direction, Cstf1 / RTV Corrective Direction, Tes / RTV Corrective Direction, Sbno1 / RTV Corrective Direction, Unc119b / RTV Corrective Direction, Cfdp1 / RTV Corrective Direction, Sec61b: YES = protein abundance effect opposite to DYT/WT; conditions: EV protein abundance; for RTV Corrective Direction: DYT + RTV (ritonavir) vs DYT, direction compared with DYT/WT; for DYT + RTV/DYT Cohen's d: ritonavir (RTV)-treated DYT vs DYT
WT MEF EVs = experiment: Quantitative LC-MS/MS proteomics of EVs from ISRIB-treated WT MEF cultures; type: cell-based, mouse; parameters: key to ISRIB and DYT Parallel Direction / ISRIB and DYT Parallel Direction, Ctdsp1 / ISRIB and DYT Parallel Direction, Pcdh19 / ISRIB and DYT Parallel Direction, Tspan7 / ISRIB and DYT Parallel Direction, Myo1e / ISRIB and DYT Parallel Direction, Plpp3 / ISRIB and DYT Parallel Direction, Sh3bp4 / ISRIB and DYT Parallel Direction, Dnajc7 / ISRIB and DYT Parallel Direction, Drg1 / ISRIB and DYT Parallel Direction, Maea: YES = protein abundance effect similar to DYT/WT; conditions: EV protein abundance; for WT + ISRIB/WT Cohen's d: ISRIB-treated WT vs WT; for ISRIB and DYT Parallel Direction: WT + ISRIB vs WT, direction compared with DYT/WT

Molecule	RTV Corrective Direction (DYT-TOR1A MEF EVs)	DYT + RTV/DYT Cohen's d (DYT-TOR1A MEF EVs)	WT + ISRIB/WT Cohen's d (WT MEF EVs)	ISRIB and DYT Parallel Direction (WT MEF EVs)
B1	YES	−1.96	0.14	YES
B2	YES	−1.72	3.88	YES
B3	YES	16.90	−3.65	YES
B4	YES	2.24	−1.08	YES
B5	YES	−0.60	0.71	YES
B6	YES	1.82	−0.96	YES
